From article PMC7316351, “Cancer-associated mutations in the iron-sulfur domain of FANCJ affect G-quadruplex metabolism” come the findings set out here.

Residue numbers refer to the chain shown, from its start.

One data set concerns the target T1, FANCJ K52R (UniProt Q9BX63 1-1249, K52R).
T1 sequence: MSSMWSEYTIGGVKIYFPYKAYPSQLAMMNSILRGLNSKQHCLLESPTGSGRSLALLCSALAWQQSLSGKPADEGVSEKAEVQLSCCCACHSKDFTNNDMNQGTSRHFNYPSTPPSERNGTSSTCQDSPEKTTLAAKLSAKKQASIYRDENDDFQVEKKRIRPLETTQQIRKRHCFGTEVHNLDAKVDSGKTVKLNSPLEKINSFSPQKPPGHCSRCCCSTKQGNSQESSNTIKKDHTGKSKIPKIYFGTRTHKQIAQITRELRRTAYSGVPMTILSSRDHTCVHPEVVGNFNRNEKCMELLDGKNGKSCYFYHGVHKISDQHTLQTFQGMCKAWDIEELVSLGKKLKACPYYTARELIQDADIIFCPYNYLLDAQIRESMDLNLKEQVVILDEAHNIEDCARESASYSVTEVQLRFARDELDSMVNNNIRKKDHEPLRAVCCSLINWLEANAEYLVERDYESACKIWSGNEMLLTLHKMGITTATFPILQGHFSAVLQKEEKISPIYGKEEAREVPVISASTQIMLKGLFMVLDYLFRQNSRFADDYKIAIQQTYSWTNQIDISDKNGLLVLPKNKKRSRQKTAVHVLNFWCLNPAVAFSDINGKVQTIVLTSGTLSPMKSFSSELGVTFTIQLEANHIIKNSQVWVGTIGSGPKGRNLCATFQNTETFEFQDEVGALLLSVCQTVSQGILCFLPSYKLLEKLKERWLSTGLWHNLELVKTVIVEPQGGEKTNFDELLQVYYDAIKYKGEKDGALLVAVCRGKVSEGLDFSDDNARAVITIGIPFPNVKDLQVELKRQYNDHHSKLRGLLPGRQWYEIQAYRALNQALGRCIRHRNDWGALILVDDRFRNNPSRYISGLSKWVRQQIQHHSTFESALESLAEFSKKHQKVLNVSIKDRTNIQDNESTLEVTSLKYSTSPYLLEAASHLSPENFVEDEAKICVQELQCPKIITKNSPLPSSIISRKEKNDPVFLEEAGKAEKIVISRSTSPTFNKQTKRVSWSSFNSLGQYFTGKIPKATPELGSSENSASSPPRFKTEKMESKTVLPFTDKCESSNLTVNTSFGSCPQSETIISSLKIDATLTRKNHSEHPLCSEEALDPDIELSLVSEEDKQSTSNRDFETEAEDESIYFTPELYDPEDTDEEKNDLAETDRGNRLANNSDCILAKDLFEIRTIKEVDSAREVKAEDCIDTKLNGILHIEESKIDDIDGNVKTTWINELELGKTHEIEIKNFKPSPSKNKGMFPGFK
Briefly: EMSA; 10/40/70 nM protein, 5 nM DNA, no ATP; EMSA: 15 mM Na-phosphate pH 7.4, 45 mM NaCl, 3% glycerol, 40 mM Tris-HCl pH 7.4, 25 mM KCl, 100 ng/ul BSA, 2 mM DTT, 0.1 mM EDTA; 30 min at 25 C; 5% PAGE in 1x. The settings on record: protein: recombinant; tags: N-terminal Flag; label: 5'-FAM on strand 1.

Another data set has as its target T2, FANCJ M299I (UniProt Q9BX63 1-1249, M299I).
T2 sequence: T1 sequence with R52K, M299I
Briefly: EMSA; 10/40/70 nM protein, 5 nM DNA, no ATP; wild-type level of binding; EMSA: 15 mM Na-phosphate pH 7.4, 45 mM NaCl, 3% glycerol, 40 mM Tris-HCl pH 7.4, 25 mM KCl, 100 ng/ul BSA, 2 mM DTT, 0.1 mM EDTA; 30 min at 25 C; 5% PAGE in 1x. The settings on record: protein: recombinant; tags: N-terminal Flag; label: 5'-FAM on strand 1.

B1: Y-structure (XO1/sDO1) (dsDNA)
DNA 1: GACGCTGCCGAATTCTACCAGTGCCTTGCTAGGACATCTTTG
DNA 2: TTTTTTTTTTTTTTTTTTTTTTTTTTTTTTTTTTTTGGTAGAATTCGGCAGCGT
For the molecule B1, the binding result with FANCJ K52R and with FANCJ M299I was “binds” in each case.
